# Experimental data from US20090186824A1 (INIMEX PHARMACEUTICALS, published 2009).
# Bridges are numbered along the chain shown (N, C = ends). Where no end group is shown, it is not given here. [ ]: non-standard residue; d: D form.
# B1: SEQ ID NO 62 (peptide)
# peptide: [code r][code r]VP-NH2
# modifications: not fully specified
# B2: SEQ ID NO 32 (peptide)
# peptide: CRIVPAC
# modifications: disulfide 1-7; not fully specified (C-terminus)
# B3: SEQ ID NO 2 (peptide)
# peptide: Ac-KSRIVP-NH2
# Molecular target: dipeptidyl peptidase IV (DPPIV) in plasma of ICR mouse blood (mouse, UniProt P28843 37-760)
# Sequence (P28843 37-760 limits assumed): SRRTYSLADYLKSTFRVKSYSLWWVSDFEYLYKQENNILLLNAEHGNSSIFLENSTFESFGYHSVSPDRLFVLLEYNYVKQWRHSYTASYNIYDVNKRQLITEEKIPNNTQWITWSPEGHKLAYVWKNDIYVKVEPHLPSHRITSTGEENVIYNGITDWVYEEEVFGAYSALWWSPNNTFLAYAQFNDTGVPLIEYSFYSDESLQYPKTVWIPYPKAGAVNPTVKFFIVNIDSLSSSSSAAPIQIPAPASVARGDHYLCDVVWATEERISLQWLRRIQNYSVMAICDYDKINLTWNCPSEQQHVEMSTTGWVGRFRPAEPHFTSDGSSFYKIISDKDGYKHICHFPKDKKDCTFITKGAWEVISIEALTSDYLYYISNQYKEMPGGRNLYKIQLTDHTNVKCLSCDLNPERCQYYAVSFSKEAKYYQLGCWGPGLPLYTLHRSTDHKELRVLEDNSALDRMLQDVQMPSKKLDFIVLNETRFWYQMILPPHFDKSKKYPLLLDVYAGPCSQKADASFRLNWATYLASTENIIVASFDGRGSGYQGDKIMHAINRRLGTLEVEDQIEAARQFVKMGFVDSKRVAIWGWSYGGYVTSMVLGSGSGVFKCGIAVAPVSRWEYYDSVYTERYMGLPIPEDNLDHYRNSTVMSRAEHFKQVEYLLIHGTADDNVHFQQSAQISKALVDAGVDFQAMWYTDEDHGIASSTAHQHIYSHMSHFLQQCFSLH
# Test: cell-based or functional assay
row,Binder,% DPPIV Activity (Saline)
1,B1,51 % relative to saline control
2,B2,30 % relative to saline control
3,B3,93 % relative to saline control
